Test results as given in patent US20090099029.

Each substance was assayed against Bovine, dephosphorylated, Myelin Basic Protein (MBP) (UniProt P02687).
Chain of Bovine, dephosphorylated, Myelin Basic Protein (MBP) (P02687 whole entry): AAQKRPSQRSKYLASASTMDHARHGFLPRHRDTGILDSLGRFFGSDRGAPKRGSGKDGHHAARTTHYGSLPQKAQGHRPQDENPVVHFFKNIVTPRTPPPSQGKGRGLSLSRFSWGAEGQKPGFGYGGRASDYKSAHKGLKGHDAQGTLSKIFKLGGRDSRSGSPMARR

Chain of CLK4 (chain, as listed by the source): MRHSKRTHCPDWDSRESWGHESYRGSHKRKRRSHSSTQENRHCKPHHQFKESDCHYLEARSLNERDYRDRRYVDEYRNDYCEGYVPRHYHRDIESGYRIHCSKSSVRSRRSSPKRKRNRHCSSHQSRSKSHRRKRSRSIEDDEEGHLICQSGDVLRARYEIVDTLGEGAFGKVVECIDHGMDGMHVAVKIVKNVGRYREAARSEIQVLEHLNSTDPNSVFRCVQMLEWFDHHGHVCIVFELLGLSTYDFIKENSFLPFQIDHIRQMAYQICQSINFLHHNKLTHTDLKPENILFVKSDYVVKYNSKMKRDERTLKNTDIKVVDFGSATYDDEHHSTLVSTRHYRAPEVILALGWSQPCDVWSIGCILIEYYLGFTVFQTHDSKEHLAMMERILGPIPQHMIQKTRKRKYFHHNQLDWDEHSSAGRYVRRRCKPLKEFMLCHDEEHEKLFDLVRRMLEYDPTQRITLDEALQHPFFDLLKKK
Chain of NTRK2 (chain, as listed by the source): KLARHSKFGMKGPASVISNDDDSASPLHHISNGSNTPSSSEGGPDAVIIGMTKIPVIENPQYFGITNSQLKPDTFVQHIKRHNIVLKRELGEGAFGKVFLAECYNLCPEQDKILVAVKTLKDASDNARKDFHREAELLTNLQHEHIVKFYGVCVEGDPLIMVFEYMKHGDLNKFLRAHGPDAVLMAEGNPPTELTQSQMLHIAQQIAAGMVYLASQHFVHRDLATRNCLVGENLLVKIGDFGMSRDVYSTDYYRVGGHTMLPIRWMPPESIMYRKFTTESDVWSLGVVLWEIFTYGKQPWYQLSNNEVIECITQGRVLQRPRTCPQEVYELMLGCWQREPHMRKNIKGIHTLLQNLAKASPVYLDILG
Chain of CSNK1G1(CK1gamma1) (chain, as listed by the source): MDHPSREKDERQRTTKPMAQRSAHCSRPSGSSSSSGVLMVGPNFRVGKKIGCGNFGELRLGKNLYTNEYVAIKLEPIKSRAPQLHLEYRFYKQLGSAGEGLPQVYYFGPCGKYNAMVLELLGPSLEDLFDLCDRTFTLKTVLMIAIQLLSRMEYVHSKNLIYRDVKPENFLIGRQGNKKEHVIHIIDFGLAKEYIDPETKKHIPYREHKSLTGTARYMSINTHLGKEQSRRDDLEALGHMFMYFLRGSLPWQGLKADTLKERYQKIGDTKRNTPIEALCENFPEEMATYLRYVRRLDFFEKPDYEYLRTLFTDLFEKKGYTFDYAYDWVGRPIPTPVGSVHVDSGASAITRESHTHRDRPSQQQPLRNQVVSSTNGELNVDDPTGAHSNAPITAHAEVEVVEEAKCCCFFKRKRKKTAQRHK
Chain of STK24(MST3) (chain, as listed by the source): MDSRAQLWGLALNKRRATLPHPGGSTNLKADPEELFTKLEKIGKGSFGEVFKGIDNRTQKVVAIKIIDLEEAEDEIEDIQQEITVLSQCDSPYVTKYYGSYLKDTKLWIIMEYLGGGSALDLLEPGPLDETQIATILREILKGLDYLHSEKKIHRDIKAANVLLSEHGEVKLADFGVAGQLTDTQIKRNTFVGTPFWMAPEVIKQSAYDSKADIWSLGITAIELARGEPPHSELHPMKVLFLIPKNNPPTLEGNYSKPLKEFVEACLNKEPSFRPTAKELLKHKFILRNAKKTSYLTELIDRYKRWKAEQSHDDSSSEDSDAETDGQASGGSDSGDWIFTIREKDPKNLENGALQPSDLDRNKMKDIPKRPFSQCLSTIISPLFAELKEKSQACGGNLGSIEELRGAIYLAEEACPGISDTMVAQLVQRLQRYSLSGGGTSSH
Chain of PIM1 (chain, as listed by the source): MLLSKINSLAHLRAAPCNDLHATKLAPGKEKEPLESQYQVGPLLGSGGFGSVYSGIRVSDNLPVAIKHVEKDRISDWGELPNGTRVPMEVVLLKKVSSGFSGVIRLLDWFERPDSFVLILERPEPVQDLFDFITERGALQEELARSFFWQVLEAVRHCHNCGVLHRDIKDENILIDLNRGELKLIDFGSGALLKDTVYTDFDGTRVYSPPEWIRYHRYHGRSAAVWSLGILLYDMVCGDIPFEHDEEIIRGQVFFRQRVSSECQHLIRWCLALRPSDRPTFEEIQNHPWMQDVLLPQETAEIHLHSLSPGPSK
Chain of NEK7 (chain, as listed by the source): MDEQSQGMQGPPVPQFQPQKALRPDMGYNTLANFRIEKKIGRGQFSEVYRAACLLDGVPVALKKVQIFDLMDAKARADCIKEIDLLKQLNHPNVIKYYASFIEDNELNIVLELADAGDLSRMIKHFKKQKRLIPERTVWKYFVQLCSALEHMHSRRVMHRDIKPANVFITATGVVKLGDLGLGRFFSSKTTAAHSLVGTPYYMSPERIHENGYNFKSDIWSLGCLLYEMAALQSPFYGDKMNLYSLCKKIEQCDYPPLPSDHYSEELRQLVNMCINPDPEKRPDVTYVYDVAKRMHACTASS
Chain of MST4 (chain, as listed by the source): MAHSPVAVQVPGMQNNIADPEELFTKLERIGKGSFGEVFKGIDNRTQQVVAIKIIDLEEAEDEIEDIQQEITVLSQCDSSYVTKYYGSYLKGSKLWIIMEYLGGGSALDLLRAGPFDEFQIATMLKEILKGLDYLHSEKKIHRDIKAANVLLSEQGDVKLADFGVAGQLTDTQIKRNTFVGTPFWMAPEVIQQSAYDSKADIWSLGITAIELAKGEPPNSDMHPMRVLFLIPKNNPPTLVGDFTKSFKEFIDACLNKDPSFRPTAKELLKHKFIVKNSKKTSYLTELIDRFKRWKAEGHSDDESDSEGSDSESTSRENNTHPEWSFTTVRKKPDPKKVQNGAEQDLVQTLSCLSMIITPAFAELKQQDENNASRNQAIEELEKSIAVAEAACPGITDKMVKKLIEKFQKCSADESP
Chain of PIM2 (chain, as listed by the source): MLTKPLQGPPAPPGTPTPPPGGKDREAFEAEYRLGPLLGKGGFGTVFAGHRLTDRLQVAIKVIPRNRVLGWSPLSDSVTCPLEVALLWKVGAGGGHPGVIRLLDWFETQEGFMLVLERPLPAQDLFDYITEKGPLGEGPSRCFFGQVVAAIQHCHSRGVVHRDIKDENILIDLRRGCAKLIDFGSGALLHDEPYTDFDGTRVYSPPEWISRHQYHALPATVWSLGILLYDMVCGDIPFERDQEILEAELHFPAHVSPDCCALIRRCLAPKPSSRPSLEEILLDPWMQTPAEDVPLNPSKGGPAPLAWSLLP
Chain of PHKG1 (chain, as listed by the source): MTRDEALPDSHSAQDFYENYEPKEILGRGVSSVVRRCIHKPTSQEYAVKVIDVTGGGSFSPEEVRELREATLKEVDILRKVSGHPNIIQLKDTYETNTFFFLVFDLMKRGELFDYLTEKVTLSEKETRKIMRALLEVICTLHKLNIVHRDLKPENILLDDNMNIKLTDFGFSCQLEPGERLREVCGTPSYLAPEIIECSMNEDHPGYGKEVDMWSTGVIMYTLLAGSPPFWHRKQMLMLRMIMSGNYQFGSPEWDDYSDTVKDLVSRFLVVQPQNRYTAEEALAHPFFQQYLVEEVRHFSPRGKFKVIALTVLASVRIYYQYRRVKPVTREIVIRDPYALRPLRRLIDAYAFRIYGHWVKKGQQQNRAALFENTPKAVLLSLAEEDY
Chain of NEK6 (chain, as listed by the source): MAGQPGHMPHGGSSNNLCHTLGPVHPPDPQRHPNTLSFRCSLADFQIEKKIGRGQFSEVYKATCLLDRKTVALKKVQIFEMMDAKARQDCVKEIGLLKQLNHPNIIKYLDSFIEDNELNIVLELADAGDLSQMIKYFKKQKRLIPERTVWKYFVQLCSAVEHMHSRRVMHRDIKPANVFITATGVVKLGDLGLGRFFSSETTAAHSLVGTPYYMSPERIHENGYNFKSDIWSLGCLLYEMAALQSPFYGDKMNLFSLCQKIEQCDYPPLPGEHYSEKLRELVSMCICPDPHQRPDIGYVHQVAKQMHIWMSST
Chain of YES1 (chain, as listed by the source): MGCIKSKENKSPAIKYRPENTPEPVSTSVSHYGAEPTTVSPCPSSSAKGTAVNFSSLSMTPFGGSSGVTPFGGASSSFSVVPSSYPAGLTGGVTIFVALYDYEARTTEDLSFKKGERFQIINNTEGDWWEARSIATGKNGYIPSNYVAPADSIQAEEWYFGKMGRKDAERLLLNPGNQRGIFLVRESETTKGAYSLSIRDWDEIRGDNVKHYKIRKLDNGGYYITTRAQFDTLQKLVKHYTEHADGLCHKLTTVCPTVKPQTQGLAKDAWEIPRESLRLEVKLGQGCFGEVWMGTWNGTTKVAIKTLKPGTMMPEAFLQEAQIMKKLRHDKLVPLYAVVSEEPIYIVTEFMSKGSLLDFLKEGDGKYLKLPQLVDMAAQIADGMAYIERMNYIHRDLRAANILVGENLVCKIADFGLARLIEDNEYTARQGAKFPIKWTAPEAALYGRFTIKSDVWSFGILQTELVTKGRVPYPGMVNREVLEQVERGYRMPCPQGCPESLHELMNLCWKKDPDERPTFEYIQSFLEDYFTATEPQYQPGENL
Chain of STK25(YSK1) (chain, as listed by the source): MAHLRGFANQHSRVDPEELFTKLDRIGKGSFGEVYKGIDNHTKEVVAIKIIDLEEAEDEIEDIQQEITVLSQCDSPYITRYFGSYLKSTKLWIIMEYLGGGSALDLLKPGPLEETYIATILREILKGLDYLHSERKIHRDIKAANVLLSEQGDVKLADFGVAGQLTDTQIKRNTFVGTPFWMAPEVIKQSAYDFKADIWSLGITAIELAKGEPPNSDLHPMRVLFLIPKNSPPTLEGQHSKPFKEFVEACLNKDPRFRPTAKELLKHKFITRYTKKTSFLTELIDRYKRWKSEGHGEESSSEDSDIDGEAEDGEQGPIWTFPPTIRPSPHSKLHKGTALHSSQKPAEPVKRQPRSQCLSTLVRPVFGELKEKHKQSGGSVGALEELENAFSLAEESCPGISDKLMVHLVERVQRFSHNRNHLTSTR

Row | Substance | MBP Kinase Activity
1 | ADRBK2(GRK3) | Negative
2 | AKT1 | Strong
3 | BLK | Weak
4 | CDK1/cyclin B | Strong
5 | CLK1 | Strong
6 | CLK3 | Strong
7 | CLK4 | Negative
8 | CSNK1G1(CK1gamma1) | Negative
9 | CSNK1G2 | Negative
10 | CSNK1G3 | Weak
11 | EGFR | Negative
12 | EPHA7 | Weak
13 | FGR | Weak
14 | FYN | Strong
15 | MAP4K5(KHS1) | Negative
16 | MLCK | Negative
17 | MST4 | Negative
18 | NEK6 | Negative

Row | Substance | MBP Kinase Activity
19 | NEK7 | Negative
20 | NTRK1 | Strong
21 | NTRK2 | Strong
22 | NTRK3 | Strong
23 | PHKG1 | Negative
24 | PIM1 | Strong
25 | PIM2 | Weak
26 | PKN1(PRK1) | Strong
27 | PRKCB1 | Strong
28 | PRKCD | Strong
29 | PRKCG | Strong
30 | SGK | Strong
31 | SGKL(SGK3) | Weak
32 | STK24(MST3) | Weak
33 | STK25(YSK1) | Strong
34 | WEE1 | Negative
35 | YES1 | Weak
